Laboratory results taken from paper PMC11432006.

Molecular target: lysozyme from egg, P00698
Test: SPR
Conditions: chain shown with the change; lysozyme immobilized, VNAR flowed over; 1:1 fitting model

lysozyme from egg, P00698, sequence (P00698 19-147): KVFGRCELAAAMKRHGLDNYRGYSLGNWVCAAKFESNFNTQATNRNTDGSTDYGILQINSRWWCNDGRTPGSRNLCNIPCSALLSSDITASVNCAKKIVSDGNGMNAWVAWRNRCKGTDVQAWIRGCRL

Binder	ratio to parent
anti-lysozyme VNAR (lyso-VNAR) C30A; C112.1S (protein) ARVDQTPQTITKETGESLTINCVLRDSNAALSSTYWYRKKSGSTNEESISKGGRYVETVNSGSKSFSLRINDLTVEDSGTYRCKPESRYGSYDAESAALNDQYGGGTVVTVN	31.5
anti-lysozyme VNAR (lyso-VNAR) C30L; C112.1A (protein) ARVDQTPQTITKETGESLTINCVLRDSNLALSSTYWYRKKSGSTNEESISKGGRYVETVNSGSKSFSLRINDLTVEDSGTYRCKPESRYGSYDAEAAALNDQYGGGTVVTVN	19.1
anti-lysozyme VNAR (lyso-VNAR) C30W; C112.1V (protein) ARVDQTPQTITKETGESLTINCVLRDSNWALSSTYWYRKKSGSTNEESISKGGRYVETVNSGSKSFSLRINDLTVEDSGTYRCKPESRYGSYDAEVAALNDQYGGGTVVTVN	54.3
anti-lysozyme VNAR (lyso-VNAR) C30P; C112.1T (protein) ARVDQTPQTITKETGESLTINCVLRDSNPALSSTYWYRKKSGSTNEESISKGGRYVETVNSGSKSFSLRINDLTVEDSGTYRCKPESRYGSYDAETAALNDQYGGGTVVTVN	211
anti-lysozyme VNAR (lyso-VNAR) C30G; C112.1L (protein) ARVDQTPQTITKETGESLTINCVLRDSNGALSSTYWYRKKSGSTNEESISKGGRYVETVNSGSKSFSLRINDLTVEDSGTYRCKPESRYGSYDAELAALNDQYGGGTVVTVN	12.7
anti-lysozyme VNAR (lyso-VNAR) C30L; C112.1L (protein) ARVDQTPQTITKETGESLTINCVLRDSNLALSSTYWYRKKSGSTNEESISKGGRYVETVNSGSKSFSLRINDLTVEDSGTYRCKPESRYGSYDAELAALNDQYGGGTVVTVN	100
anti-lysozyme VNAR (lyso-VNAR) C30G; C112.1A (protein) ARVDQTPQTITKETGESLTINCVLRDSNGALSSTYWYRKKSGSTNEESISKGGRYVETVNSGSKSFSLRINDLTVEDSGTYRCKPESRYGSYDAEAAALNDQYGGGTVVTVN	24.1
